Laboratory results from patent US7220569.

Target: T1, Factor X analogue with the furin cleavage site Arg-Arg-Lys-Arg/Ile (rFX^RRKR/I)
T1 chain 1: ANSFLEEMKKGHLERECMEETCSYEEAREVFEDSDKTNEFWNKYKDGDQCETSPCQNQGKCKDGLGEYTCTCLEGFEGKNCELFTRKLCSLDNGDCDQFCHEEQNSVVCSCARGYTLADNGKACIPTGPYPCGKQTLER
T1 chain 2: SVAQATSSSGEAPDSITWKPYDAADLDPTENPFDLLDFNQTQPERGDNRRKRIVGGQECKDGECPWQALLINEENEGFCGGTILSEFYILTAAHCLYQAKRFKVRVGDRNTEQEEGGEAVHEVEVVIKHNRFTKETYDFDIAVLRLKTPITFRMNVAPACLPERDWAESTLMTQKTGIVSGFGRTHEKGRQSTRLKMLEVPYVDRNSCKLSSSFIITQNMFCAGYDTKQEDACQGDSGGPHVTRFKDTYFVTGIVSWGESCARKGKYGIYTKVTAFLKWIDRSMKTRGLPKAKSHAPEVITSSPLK

B1: rfurin deltaCys-spacer-10xHis (purified r-furin derivative) (protein)
chain: DVYQEPTDPKFPQQWYLSGVTQRDLNVKAAWAQGYTGHGIVVSILDDGIEKNHPDLAGNYDPGASFDVNDQDPDPQPRYTQMNDNRHGTRCAGEVAAVANNGVCGVGVAYNARIGGVRMLDGEVTDAVEARSLGLNPNHIHIYSASWGPEDDGKTVDGPARLAEEAFFRGVSQGRGGLGSIFVWASGNGGREHDSCNCDGYTNSIYTLSISSATQFGNVPWYSEACSSTLATTYSSGNQNEKQIVTTDLRQKCTESHTGTSASAPLAAGIIALTLEANKNLTWRDMQHLVVQTSKPAHLNANDWATNGVGRKVSHSYGYGLLDAGAMVALAQNWTTVAPQRKCIIDILTEPKDIGKRLEVRKTVTACLGEPNHITRLEHAQARLTLSYNRRGDLAIHLVSPMGTRSTLLAARPHDYSADGFNDWAFMTTHSWDEDPSGEWVLEIENTSEANNYGTLTKFTLVLYGTAPEG
In the case of B1, the FXa activity (mU/ml), chromogenic substrate S2337, incubation 0 hours is reported as < 25 mU/ml, the FXa activity (mU/ml), chromogenic substrate S2337, incubation 6 hours is reported as 56 mU/ml and the FXa activity (mU/ml), chromogenic substrate S2337, incubation 24 hours is reported as 101 mU/ml. The FXa activity (mU/ml), chromogenic substrate S2337, incubation 48 hours was 124 mU/ml, the FXa activity (mU/ml), chromogenic substrate S2337, incubation 72 hours was 133 mU/ml and the “conversion of the heavy chain to the activated form after 72 hours at 37 C (Western blot)” value was “about 50% of the starting material (HC) have been converted to the activated form”. For the same protein, the specific activity (mU/µg), incubation 0 hours was 0 mU/µg, the specific activity (mU/µg), incubation 6 hours was 80 mU/µg and the specific activity (mU/µg), incubation 24 hours was 144 mU/µg. For the same protein, the specific activity (mU/µg), incubation 48 hours was 177 mU/µg and the specific activity (mU/µg), incubation 72 hours was 190 mU/µg.
